# Results from patent publication US20240279318A1 (NANJING LEGEND BIOTECH, published 2024).
# Where a chain is given by its changes, count along the chain named.
# B1: AS170036 VL1VH1-56N98F (scFv)
# scFv: QSALTQPRSVSGSPGQSVTISCAGTSSDVGSENYVSWYQQHPGKAPKLMIYQVNKRASGVPDRFSGSKSGNTASLTISGLQAEDEADYYCASYRSSDFNIVFGGGTKLTVLGGGGSGGGGSGGGGSEVQLVESGGGLVQPGGSLRLSCAASGFTFSSYAMSWVRQAPGKGLEWVSTINSGTNSPYYADSVKGRFTISRDNSKNTLYLQMNSLRAEDTAVYYCAKNFFDGSWFLGPPAMDYWGQGTLVTVSSHHHHHH
# notes: also called 04-AS170036 VL1VH1-56N98F
# B2: AS170036 VL1VH1-56N98I (scFv)
# scFv: B1 scFv with F98I
# notes: also called 05-AS170036 VL1VH1-56N98I
# B3: AS170036 VL1VH1-57H108A (scFv)
# scFv: B1 scFv with F98H, N182G, S183H, G234A
# notes: also called 22-AS170036 VL1VH1-57H108A
# B4: AS170036 VL1VH1-56Y108A (scFv)
# scFv: B1 scFv with F98H, N182Y, G234A
# notes: also called 16-AS170036 VL1VH1-56Y108A
# B5: AS170036 VL1VH1-57H108D (scFv)
# scFv: B1 scFv with F98H, N182G, S183H, G234D
# notes: also called 23-AS170036 VL1VH1-57H108D
# B6: AS170036 VL1VH1-57K98Q (scFv)
# scFv: B1 scFv with F98Q, N182G, S183K
# notes: also called 12-AS170036 VL1VH1-57K98Q
# B7: AS170036 VL1VH1-56N108D (scFv)
# scFv: B1 scFv with F98H, G234D
# notes: also called 20-AS170036 VL1VH1-56N108D
# B8: AS170036 VL1VH1-57K108D (scFv)
# scFv: B1 scFv with F98H, N182G, S183K, G234D
# notes: also called 26-AS170036 VL1VH1-57K108D
# B9: AS170036 VL1VH1-57K98I (scFv)
# scFv: B1 scFv with F98I, N182G, S183K
# notes: also called 11-AS170036 VL1VH1-57K98I
# B10: AS170036 VL1VH1-56N98Q (scFv)
# scFv: B1 scFv with F98Q
# notes: also called 06-AS170036 VL1VH1-56N98Q
# B11: AS170036 VL1VH1-57K108A (scFv)
# scFv: B1 scFv with F98H, N182G, S183K, G234A
# notes: also called 25-AS170036 VL1VH1-57K108A
# B12: AS170036 VL1VH1-57H108S (scFv)
# scFv: B1 scFv with F98H, N182G, S183H, G234S
# notes: also called 24-AS170036 VL1VH1-57H108S
# B13: AS170036 VL1VH1-57K98F (scFv)
# scFv: B1 scFv with N182G, S183K
# notes: also called 10-AS170036 VL1VH1-57K98F
# B14: AS170036 VL1VH1-56Y108D (scFv)
# scFv: B1 scFv with F98H, N182Y, G234D
# notes: also called 17-AS170036 VL1VH1-56Y108D
# B15: AS170036 VL1VH1-57H98I (scFv)
# scFv: B1 scFv with F98I, N182G, S183H
# notes: also called 08-AS170036 VL1VH1-57H98I
# B16: AS170036 VL1VH1-57H98F (scFv)
# scFv: B1 scFv with N182G, S183H
# notes: also called 07-AS170036 VL1VH1-57H98F
# B17: AS170036 VL1VH1-57K108S (scFv)
# scFv: B1 scFv with F98H, N182G, S183K, G234S
# notes: also called 27-AS170036 VL1VH1-57K108S
# B18: AS170036 VL1VH1-57H98Q (scFv)
# scFv: B1 scFv with F98Q, N182G, S183H
# notes: also called 09-AS170036 VL1VH1-57H98Q
# B19: AS170036 VL1VH1-56N108A (scFv)
# scFv: B1 scFv with F98H, G234A
# notes: also called 19-AS170036 VL1VH1-56N108A
# B20: AS170036 VL1VH1-56Y98F (scFv)
# scFv: B1 scFv with N182Y
# notes: also called 01-AS170036 VL1VH1-56Y98F
# B21: AS170036 VL1VH1-57M98F (scFv)
# scFv: B1 scFv with N182G, S183M
# notes: also called 13-AS170036 VL1VH1-57M98F
# B22: AS170036 VL1VH1-56Y98I (scFv)
# scFv: B1 scFv with F98I, N182Y
# notes: also called 02-AS170036 VL1VH1-56Y98I
# B23: AS170036 VL1VH1-56Y98Q (scFv)
# scFv: B1 scFv with F98Q, N182Y
# notes: also called 03-AS170036 VL1VH1-56Y98Q
# B24: AS170036 VL1VH1-56Y108S (scFv)
# scFv: B1 scFv with F98H, N182Y, G234S
# notes: also called 18-AS170036 VL1VH1-56Y108S
# B25: AS170036 VL1VH1-56N108S (scFv)
# scFv: B1 scFv with F98H, G234S
# notes: also called 21-AS170036 VL1VH1-56N108S
# B26: AS170036 VL1VH1-57M98F108S (scFv)
# scFv: B1 scFv with N182G, S183M, G234S
# notes: also called 78-AS170036 VL1VH1-57M98F108S
# B27: AS170036 VL1VH1-57M98I108A (scFv)
# scFv: B1 scFv with F98I, N182G, S183M, G234A
# notes: also called 79-AS170036 VL1VH1-57M98I108A
# B28: AS170036 VL1VH1-57M98F108D (scFv)
# scFv: B1 scFv with N182G, S183M, G234D
# notes: also called 77-AS170036 VL1VH1-57M98F108D
# B29: AS170036 VL1VH1-57M98F108A (scFv)
# scFv: B1 scFv with N182G, S183M, G234A
# notes: also called 76-AS170036 VL1VH1-57M98F108A
# B30: AS170036 VL1VH1-57K98F108S (scFv)
# scFv: B1 scFv with N182G, S183K, G234S
# notes: also called 69-AS170036 VL1VH1-57K98F108S
# B31: AS170036 VL1VH1-57K98I108S (scFv)
# scFv: B1 scFv with F98I, N182G, S183K, G234S
# notes: also called 72-AS170036 VL1VH1-57K98I108S
# B32: AS170036 VL1VH1-57M98Q108D (scFv)
# scFv: B1 scFv with F98Q, N182G, S183M, G234D
# notes: also called 83-AS170036 VL1VH1-57M98Q108D
# B33: AS170036 VL1VH1-57K98Q108A (scFv)
# scFv: B1 scFv with F98Q, N182G, S183K, G234A
# notes: also called 73-AS170036 VL1VH1-57K98Q108A
# B34: AS170036 VL1VH1-57K98I108D (scFv)
# scFv: B1 scFv with F98I, N182G, S183K, G234D
# notes: also called 71-AS170036 VL1VH1-57K98I108D
# B35: AS170036 VL1VH1-57M98Q108A (scFv)
# scFv: B1 scFv with F98Q, N182G, S183M, G234A
# notes: also called 82-AS170036 VL1VH1-57M98Q108A
# B36: AS170036 VL1VH1-57K98I108A (scFv)
# scFv: B1 scFv with F98I, N182G, S183K, G234A
# notes: also called 70-AS170036 VL1VH1-57K98I108A
# B37: AS170036 VL1VH1-57K98Q108S (scFv)
# scFv: B1 scFv with F98Q, N182G, S183K, G234S
# notes: also called 75-AS170036 VL1VH1-57K98Q108S
# B38: AS170036 VL1VH1-57K98Q108D (scFv)
# scFv: B1 scFv with F98Q, N182G, S183K, G234D
# notes: also called 74-AS170036 VL1VH1-57K98Q108D
# B39: AS170036 VL1VH1-57M98Q108S (scFv)
# scFv: B1 scFv with F98Q, N182G, S183M, G234S
# notes: also called 84-AS170036 VL1VH1-57M98Q108S
# B40: AS170036 VL1VH1-57M98I108D (scFv)
# scFv: B1 scFv with F98I, N182G, S183M, G234D
# notes: also called 80-AS170036 VL1VH1-57M98I108D
# Target: T1, AFP158/HLA-A*02:01 complex (human)
# T1 construct: flowed as analyte in SPR
# Assay: SPR, fold vs AS170036 VL1VH1;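 note: crude scFv muteins immobilised on a sensor chip, peptide–MHC complex passed over at several concentrations, binding then buffer-driven dissociation, KD estimated from on- and off-rates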
# Method: (§1) The experiment was carried out as follows. The crude scFv protein were captured onto the sensorchip. Different concentrations (320, 160, 40 nM) of AFP158/HLA-A*02:01 complex flowed over the sensorchip surface, and were allowed to bind the antibody fragment for 100 s followed by injection of the running buffer to allow dissociation of the complex. On-rate (kd) and off-rate (kd) were calculated based on association and dissociation curve, and were used to estimate the equilibrium dissociation constant (KD).
# (§2) The crude scFv muteins were then subjected to SPR affinity measurement by the method mentioned above.
row,Affinity increase,Binder
1,8.2 fold,B1
2,10.7 fold,B2
3,32.5 fold,B3
4,48.1 fold,B4
5,23.5 fold,B5
6,13.9 fold,B6
7,13.2 fold,B7
8,18.9 fold,B8
9,9.1 fold,B9
10,9.7 fold,B10
11,22.5 fold,B11
12,14.2 fold,B12
13,11.8 fold,B13
14,37.3 fold,B14
15,12.6 fold,B15
16,30.2 fold,B16
17,10.1 fold,B17
18,24.8 fold,B18
19,14.9 fold,B19
20,21 fold,B20
21,9.3 fold,B21
22,33.5 fold,B22
23,25.8 fold,B23
24,19.2 fold,B24
25,7 fold,B25

# Target: T1, AFP158/HLA-A*02:01 complex
# Assay: SPR, fold vs AS170036 VL1VH1;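 note: crude scFv muteins immobilised on a sensor chip, peptide–MHC complex passed over at several concentrations, binding then buffer-driven dissociation, KD estimated from on- and off-rates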
# Remark: another data set of the same source
# Method: as §1, §2
row,Affinity increase,Binder
1,18 fold,B26
2,28 fold,B27
3,36.2 fold,B28
4,43.4 fold,B29
5,27 fold,B30
6,21 fold,B31
7,29.6 fold,B32
8,80.4 fold,B33
9,38.7 fold,B34
10,43 fold,B35
11,52.6 fold,B36
12,33 fold,B37
13,58.7 fold,B38
14,16.7 fold,B39
15,20.5 fold,B40

# Target: T1, AFP158/HLA-A*02:01 complex
# Assay: SPR, crude scFv captured, pMHC analyte
# Method: as §1, §2
Kd,koff,kon,Binder
27 nM,0.0097 s⁻¹,360000 M⁻¹ s⁻¹,B1
21 nM,0.0056 s⁻¹,270000 M⁻¹ s⁻¹,B2
6.9 nM,0.0014 s⁻¹,210000 M⁻¹ s⁻¹,B3
4.7 nM,0.00093 s⁻¹,200000 M⁻¹ s⁻¹,B4
9.6 nM,0.002 s⁻¹,210000 M⁻¹ s⁻¹,B5
16 nM,0.0025 s⁻¹,160000 M⁻¹ s⁻¹,B6
17 nM,0.0046 s⁻¹,270000 M⁻¹ s⁻¹,B7
12 nM,0.0022 s⁻¹,190000 M⁻¹ s⁻¹,B8
25 nM,0.004 s⁻¹,160000 M⁻¹ s⁻¹,B9
23 nM,0.0058 s⁻¹,250000 M⁻¹ s⁻¹,B10
10 nM,0.0018 s⁻¹,180000 M⁻¹ s⁻¹,B11
16 nM,0.0022 s⁻¹,140000 M⁻¹ s⁻¹,B12
19 nM,0.004 s⁻¹,210000 M⁻¹ s⁻¹,B13
6 nM,0.0012 s⁻¹,200000 M⁻¹ s⁻¹,B14
18 nM,0.0036 s⁻¹,200000 M⁻¹ s⁻¹,B15
7.4 nM,0.0018 s⁻¹,240000 M⁻¹ s⁻¹,B16
22 nM,0.0026 s⁻¹,120000 M⁻¹ s⁻¹,B17
9.1 nM,0.0017 s⁻¹,190000 M⁻¹ s⁻¹,B18
15 nM,0.0036 s⁻¹,240000 M⁻¹ s⁻¹,B19
11 nM,0.0023 s⁻¹,220000 M⁻¹ s⁻¹,B20
24 nM,0.0087 s⁻¹,360000 M⁻¹ s⁻¹,B21
6.7 nM,0.0014 s⁻¹,210000 M⁻¹ s⁻¹,B22
8.7 nM,0.0016 s⁻¹,190000 M⁻¹ s⁻¹,B23
12 nM,0.0017 s⁻¹,140000 M⁻¹ s⁻¹,B24
32 nM,0.0067 s⁻¹,210000 M⁻¹ s⁻¹,B25

# Target: T1, AFP158/HLA-A*02:01 complex
# Assay: SPR, crude scFv captured, pMHC analyte
# Remark: another data set of the same source
# Method: as §1, §2
Kd,koff,kon,Binder
13 nM,0.0024 s⁻¹,190000 M⁻¹ s⁻¹,B26
8.1 nM,0.0018 s⁻¹,220000 M⁻¹ s⁻¹,B27
6.2 nM,0.0018 s⁻¹,280000 M⁻¹ s⁻¹,B28
5.2 nM,0.0013 s⁻¹,260000 M⁻¹ s⁻¹,B29
8.3 nM,0.0014 s⁻¹,160000 M⁻¹ s⁻¹,B30
11 nM,0.0013 s⁻¹,120000 M⁻¹ s⁻¹,B31
7.6 nM,0.0018 s⁻¹,240000 M⁻¹ s⁻¹,B32
2.8 nM,0.00053 s⁻¹,190000 M⁻¹ s⁻¹,B33
5.8 nM,0.0012 s⁻¹,210000 M⁻¹ s⁻¹,B34
5.2 nM,0.0012 s⁻¹,220000 M⁻¹ s⁻¹,B35
4.3 nM,0.00082 s⁻¹,190000 M⁻¹ s⁻¹,B36
6.8 nM,0.00086 s⁻¹,130000 M⁻¹ s⁻¹,B37
3.8 nM,0.00077 s⁻¹,200000 M⁻¹ s⁻¹,B38
14 nM,0.0021 s⁻¹,160000 M⁻¹ s⁻¹,B39
11 nM,0.0029 s⁻¹,260000 M⁻¹ s⁻¹,B40
